According to article PMC8875425 (ACS Central Science, 2022):
Square brackets hold non-standard residues; d marks the D form. pS = N[C@@H](COP(=O)(O)O)C(=O)O

Tests used:
[1] = biological target: KIX domain of CREB-binding protein (CBP) (UniProt P45481 588-672); assay: fluorescence polarisation
[2] = biological target: MBP-KIX-apoferritin construct 3 (24-mer double-shell complex) (not stated | mouse); assay: fluorescence polarisation

KIX domain of CREB-binding protein (CBP), sequence (P45481 588-672): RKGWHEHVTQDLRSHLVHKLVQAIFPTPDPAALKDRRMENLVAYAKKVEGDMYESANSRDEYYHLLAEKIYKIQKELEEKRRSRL

Binder | IC50 [1] [µM] | IC50 [2] [µM]
Ac-LSRRP[pS]YRKILNDLSSDAP-NH2 [peptide 7] | 50 | 311
Ac-LKRRP[pS]YRKILNDLSSDAP-NH2 [peptide 7′] | 24.2 | 170
